B1: CPEB3 Ribozyme (parent)
chain: GGGGGCCACAGCAGAAGCGUUCACGUCGCGGCCCCUGUCAGAUUCUGGUGAAUCUGCGAAUUCUGCUGU

Variants of: B1
Assay: self-cleavage, relative activity (ratio to wild type); higher = more cleavage; co-transcriptional
In the case of C9A C27U, the self-cleavage is reported as 0.695. For C9A C29G, the self-cleavage was 0.854. Work on C9A C32U yielded a self-cleavage of 1.01. C9A C33A showed a self-cleavage of 0.993. Variant C9A C33G has a self-cleavage of 0.962. C9A C33U showed a self-cleavage of 1.03. For C9A C34A, the self-cleavage was 1.01. With C9A C34U the self-cleavage was 1.04. Variant C9A C35A has a self-cleavage of 0.423. Variant C9A C35G has a self-cleavage of 0.72. C9A C35U showed a self-cleavage of 1.03. C9A C39A showed a self-cleavage of 0.942. For C9A C39G, the self-cleavage was 1. In the case of C9A C45A, the self-cleavage is reported as 1.02. C9A C45U gave a self-cleavage of 1.01. For C9A C54A, the self-cleavage was 1. Variant C9A C54G has a self-cleavage of 1.01. C9A C54U showed a self-cleavage of 1.03. With C9A C57A the self-cleavage was 0.37. C9A C57G gave a self-cleavage of 0.366. Work on C9A C57U yielded a self-cleavage of 0.423. Work on C9A C63U yielded a self-cleavage of 0.985. For C9A C66A, the self-cleavage was 0.905. In the case of C9A C66G, the self-cleavage is reported as 0.923. C9A G11A showed a self-cleavage of 0.938. With C9A G11C the self-cleavage was 0.935. Variant C9A G11U has a self-cleavage of 0.973. C9A G14C showed a self-cleavage of 0.513. Variant C9A G17A has a self-cleavage of 0.707. Variant C9A G17U has a self-cleavage of 0.622. For C9A G19A, the self-cleavage was 0.129. Work on C9A G19C yielded a self-cleavage of 0.111. C9A G19U showed a self-cleavage of 0.609. In the case of C9A G25A, the self-cleavage is reported as 0.264. Work on C9A G25U yielded a self-cleavage of 0.181. For C9A G28C, the self-cleavage was 0.196. With C9A G28U the self-cleavage was 0.187. C9A G30A showed a self-cleavage of 1.01. C9A G30C showed a self-cleavage of 0.953. C9A G30U showed a self-cleavage of 0.846. C9A G37A showed a self-cleavage of 0.397. C9A G37C showed a self-cleavage of 0.242. C9A G41A gave a self-cleavage of 0.988. In the case of C9A G41C, the self-cleavage is reported as 0.906. C9A G47A showed a self-cleavage of 1.03. With C9A G47U the self-cleavage was 1.05. C9A G48C showed a self-cleavage of 1.02. With C9A G48U the self-cleavage was 1.03. Work on C9A G56A yielded a self-cleavage of 1.02. Variant C9A G58A has a self-cleavage of 1.02. C9A G65C showed a self-cleavage of 0.627. With C9A G68A the self-cleavage was 1.04. C9A G68C gave a self-cleavage of 1.05. In the case of C9A G68U, the self-cleavage is reported as 1.04. C9A U20A showed a self-cleavage of 0.0654. C9A U20G showed a self-cleavage of 0.19. In the case of C9A U21C, the self-cleavage is reported as 0.985. C9A U21G showed a self-cleavage of 0.774. Variant C9A U26A has a self-cleavage of 0.946. C9A U26C gave a self-cleavage of 0.983. C9A U36C showed a self-cleavage of 0.968. In the case of C9A U36G, the self-cleavage is reported as 0.244. C9A U38C showed a self-cleavage of 1.03. C9A U43A gave a self-cleavage of 0.967. C9A U43G gave a self-cleavage of 0.876. C9A U44A showed a self-cleavage of 0.998. Variant C9A U44C has a self-cleavage of 1.02. With C9A U46A the self-cleavage was 1.02. For C9A U46C, the self-cleavage was 0.996. For C9A U49C, the self-cleavage was 0.989. Work on C9A U53A yielded a self-cleavage of 1.03. Variant C9A U53C has a self-cleavage of 0.997. Work on C9A U55A yielded a self-cleavage of 0.981. C9A U61A gave a self-cleavage of 0.988. For C9A U61C, the self-cleavage was 0.863. For C9A U61G, the self-cleavage was 0.86. For C9A U62A, the self-cleavage was 1.01. With C9A U64A the self-cleavage was 0.94. C9A U64C gave a self-cleavage of 0.938. Variant C9A U64G has a self-cleavage of 0.951. Variant C9A U67C has a self-cleavage of 1. With C9A U67G the self-cleavage was 1.05. Variant C9A U69C has a self-cleavage of 1.08. Work on C9A U69G yielded a self-cleavage of 1.07. C9G A10C gave a self-cleavage of 0.634. Variant C9G A10G has a self-cleavage of 1. In the case of C9G A10U, the self-cleavage is reported as 0.987. In the case of C9G A13C, the self-cleavage is reported as 0.845. Variant C9G A13G has a self-cleavage of 0.922. With C9G A15C the self-cleavage was 0.819. C9G A16G showed a self-cleavage of 0.957. C9G A16U showed a self-cleavage of 0.887. With C9G A23G the self-cleavage was 0.976. For C9G A23U, the self-cleavage was 0.978. C9G A40G gave a self-cleavage of 0.968. Work on C9G A42C yielded a self-cleavage of 1.03. Variant C9G A42G has a self-cleavage of 0.949. C9G A42U showed a self-cleavage of 1.01. Variant C9G A51G has a self-cleavage of 0.993. In the case of C9G A51U, the self-cleavage is reported as 0.976. In the case of C9G A52G, the self-cleavage is reported as 1.05. In the case of C9G A59G, the self-cleavage is reported as 0.997. C9G A59U gave a self-cleavage of 0.936. Variant C9G A60C has a self-cleavage of 0.385. In the case of C9G A60U, the self-cleavage is reported as 0.486. C9G C12A gave a self-cleavage of 0.789. With C9G C12G the self-cleavage was 0.878. In the case of C9G C12U, the self-cleavage is reported as 1. With C9G C18A the self-cleavage was 0.256. C9G C18G gave a self-cleavage of 0.2. Work on C9G C22G yielded a self-cleavage of 0.257. Work on C9G C22U yielded a self-cleavage of 0.445. C9G C24A showed a self-cleavage of 0.872. Variant C9G C24U has a self-cleavage of 0.9. C9G C27U gave a self-cleavage of 0.888. In the case of C9G C29A, the self-cleavage is reported as 0.84. Work on C9G C29G yielded a self-cleavage of 0.695. C9G C29U gave a self-cleavage of 0.897. Variant C9G C32A has a self-cleavage of 0.983. Work on C9G C32G yielded a self-cleavage of 0.665. Variant C9G C32U has a self-cleavage of 0.992. C9G C33G gave a self-cleavage of 0.925. In the case of C9G C33U, the self-cleavage is reported as 1.04. Variant C9G C34G has a self-cleavage of 0.994. In the case of C9G C35G, the self-cleavage is reported as 0.758. Variant C9G C35U has a self-cleavage of 0.964. Variant C9G C39A has a self-cleavage of 0.912. C9G C39G showed a self-cleavage of 0.981. C9G C39U showed a self-cleavage of 0.878. With C9G C45G the self-cleavage was 0.996. Work on C9G C54A yielded a self-cleavage of 0.931. C9G C54U gave a self-cleavage of 1.05. For C9G C57A, the self-cleavage was 0.402. For C9G C57G, the self-cleavage was 0.334. C9G C63A showed a self-cleavage of 0.909. C9G C63U showed a self-cleavage of 0.973. Variant C9G C66G has a self-cleavage of 0.905. C9G C66U gave a self-cleavage of 0.967. C9G G11A gave a self-cleavage of 0.882. C9G G14C gave a self-cleavage of 0.565. C9G G14U showed a self-cleavage of 0.756. In the case of C9G G17C, the self-cleavage is reported as 0.176. Work on C9G G19A yielded a self-cleavage of 0.106. C9G G25A gave a self-cleavage of 0.216. C9G G25C gave a self-cleavage of 0.108. C9G G25U showed a self-cleavage of 0.207. For C9G G28U, the self-cleavage was 0.104. Work on C9G G31C yielded a self-cleavage of 0.363. In the case of C9G G31U, the self-cleavage is reported as 0.97. C9G G37U showed a self-cleavage of 0.323. Work on C9G G41C yielded a self-cleavage of 0.964. With C9G G41U the self-cleavage was 0.888. C9G G47C gave a self-cleavage of 1.01. C9G G48A gave a self-cleavage of 1.01. In the case of C9G G48C, the self-cleavage is reported as 0.99. C9G G50C gave a self-cleavage of 1.01. C9G G58C showed a self-cleavage of 0.984. In the case of C9G G58U, the self-cleavage is reported as 1.04. In the case of C9G G65A, the self-cleavage is reported as 0.968. Variant C9G G65C has a self-cleavage of 0.585. Variant C9G G65U has a self-cleavage of 0.65. In the case of C9G G68A, the self-cleavage is reported as 1.05. Work on C9G G68C yielded a self-cleavage of 0.997. C9G G68U showed a self-cleavage of 1.02. C9G U20A gave a self-cleavage of 0.0617. In the case of C9G U20G, the self-cleavage is reported as 0.212. In the case of C9G U21A, the self-cleavage is reported as 0.998.

— the RNAGym collection of RNA variant scans (doi:10.7554/elife.80360)
